Data reported in publication PMC9817892.

Assays:
[1] = target: p63 (UniProt Q9H3D4); assay: co-immunoprecipitation from metastatic tissue; settings: reference: Nur77 wild type; sites S351
[2] = target: p63 (UniProt Q9H3D4); assay: co-immunoprecipitation, Western blot; settings: reference: Nur77 wild type; sites S351

Nur77 (from UniProt P22736) Nur77 S351A
binding against the reference [1]: weaker
binding against the reference [2]: lost
